Experimental data reported in patent publication US20240401239A1 (US Dept. of Health and Human Services, published 2024).
Where two headings read alike, the source gives them in different places.

What was measured:
[1] = target: SARS-COV-2 S protein, variant B1.1.7 (Alpha), on MLV pseudotyped particles (SARS-COV-2, UniProt P0DTC2 14-1254); assay: cell-based or functional assay
[2] = target: T1, RBD-mFc recombinant protein (Sino Biological, 40592-V05H) (SARS-COV-2, UniProt P0DTC2 319-541); assay: BLI (Octet), RBD-mFc as load, 1-2G-Fc as analyte, global fit (FIG. 11C)
T1 construct: domain: RBD

[3] = target: T2, RBD-His (SinoBiological, 40592-V08H) (SARS-COV-2, UniProt P0DTC2 319-541)
[4] = target: T2, RBD-His (SinoBiological, 40592-V08H); remark: listed apart in the source
[5] = target: T1, RBD-mFc recombinant protein (Sino …); assay: BLI (Octet), 1-2G-Fc as load, RBD-mFc as analyte, global fit (FIG. 11A)
[6] = target: T3, S1-hFc recombinant protein (Sino Biological, printed 4059I-V02H) (SARS-COV-2, UniProt P0DTC2 16-685)
[7] = target: T1, RBD-mFc recombinant protein (Sino …)
[8] = target: T2, RBD-His (SinoBiological, 40592-V08H); remark: listed apart in the source
[9] = target: T2, RBD-His (SinoBiological, 40592-V08H)
[10] = target: T3, S1-hFc recombinant protein (Sino …); remark: listed apart in the source
[11] = target: T1, RBD-mFc recombinant protein (Sino …); remark: listed apart in the source
[12] = target: T2, RBD-His (SinoBiological, 40592-V08H); remark: listed apart in the source

B1: RBD-1-2G-Fc (Fc fusion)
chain: EVQLVESGGGLVQPGGSLRLSCAASGFSSIVYMGWFRQAPGKGRELVAAIDASGSTTNYPDSVEGRFTISRDNAKRMVYLQMNSLRAEDTAVYYCAIAYFTSPEYVVSQGWGQGTQVTVSS
notes: also called bivalent format of RBD-1-2G
IC50, pseudotyped particle entry assay, B.1.1.7 particles [1]: 17.5 nM
koff [2]: 0.0005 s⁻¹
kon [2]: 73000 M⁻¹ s⁻¹
koff [3]: 0.00018 s⁻¹
kon [3]: 91000 M⁻¹ s⁻¹
Kd [4]: 1.9 nM
koff [5]: 0.0017 s⁻¹
kon [5]: 83000 M⁻¹ s⁻¹

B2: single-domain antibody RBD-1-2G (VHH)
VHH: EVQLVESGGGLVQPGGSLRLSCAASGFSSIVYMGWFRQAPGKGRELVAAIDASGSTTNYPDSVEGRFTISRDNAKRMVYLQMNSLRAEDTAVYYCAIAYFTSPEYVVSQGWGQGTQVTVSS
notes: also called RBD-1-2G Nb; RBD-1-2G nanobody
IC50, pseudotyped particle entry assay, B.1.1.7 particles [1]: 746 nM
koff [6]: 0.0002 s⁻¹
kon [6]: 29500 M⁻¹ s⁻¹
koff [7]: 0.00024 s⁻¹
kon [7]: 25400 M⁻¹ s⁻¹
koff [8]: 0.0011 s⁻¹
kon [8]: 752000 M⁻¹ s⁻¹
Kd [9]: 14.3 nM
Kd [10]: 6.9 nM
Kd [11]: 9.4 nM

B3: RBD-1-2G-Tri (bispecific antibody)
chain: EVQLVESGGGLVQPGGSLRLSCAASGFSSIVYMGWFRQAPGKGRELVAAIDASGSTTNYPDSVEGRFTISRDNAKRMVYLQMNSLRAEDTAVYYCAIAYFTSPEYVVSQGWGQGTQVTVSSGGGGSGGGGSGGGGSEVQLVESGGGLVQPGGSLRLSCAASGFSSIVYMGWFRQAPGKGRELVAAIDASGSTTNYPDSVEGRFTISRDNAKRMVYLQMNSLRAEDTAVYYCAIAYFTSPEYVVSQGWGQGTQVTVSSGGGGSGGGGSGGGGSEVQLVESGGGLVQPGGSLRLSCAASGFSSIVYMGWFRQAPGKGRELVAAIDASGSTTNYPDSVEGRFTISRDNAKRMVYLQMNSLRAEDTAVYYCAIAYFTSPEYVVSQGWGQGTQVTVSSHHHHHH
IC50, pseudotyped particle entry assay, B.1.1.7 particles [1]: 0.3 nM
koff [12]: 7e-05 s⁻¹
kon [12]: 600000 M⁻¹ s⁻¹
Kd [4]: 0.1 nM
